This note sets out measurements from US7081343.

This series concerns the target T7-RelA (UniProt Q04206).

Sequence of T7-RelA (Q04206 whole entry): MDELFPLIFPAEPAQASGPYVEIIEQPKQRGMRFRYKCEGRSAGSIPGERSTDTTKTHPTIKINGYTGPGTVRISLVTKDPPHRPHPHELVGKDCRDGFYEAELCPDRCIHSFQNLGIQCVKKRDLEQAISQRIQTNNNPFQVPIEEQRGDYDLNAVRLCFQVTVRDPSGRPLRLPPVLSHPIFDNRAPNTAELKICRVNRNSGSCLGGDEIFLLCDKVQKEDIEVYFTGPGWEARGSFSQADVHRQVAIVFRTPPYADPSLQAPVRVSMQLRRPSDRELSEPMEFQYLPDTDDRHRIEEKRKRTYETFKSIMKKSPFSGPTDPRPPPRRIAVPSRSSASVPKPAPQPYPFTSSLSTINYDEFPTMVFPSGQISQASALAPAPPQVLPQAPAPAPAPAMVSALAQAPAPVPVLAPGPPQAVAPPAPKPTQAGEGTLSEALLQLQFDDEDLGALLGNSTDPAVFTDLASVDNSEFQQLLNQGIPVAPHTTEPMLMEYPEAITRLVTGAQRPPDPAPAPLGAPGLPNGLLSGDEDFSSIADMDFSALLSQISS

Take p300: the “acetylation of T7-RelA (anti-T7 immunoprecipitation, anti-acetylated lysine blot)” value was “Co-expression of either p300 or CBP with RelA produced dose related acetylation of T7-Rel A”.
With CBP the entry was “Co-expression of either p300 or CBP with RelA produced dose related acetylation of T7-Rel A”.
